Source: patent US20010046665A1, “Method of identifying the function of a test agent” (priority 2000, published 2001)

Tests used:
Type in all cases: cell-based
Parameters in all cases: key: *: up in IL-1α treatment; **: up in OPG treatment, down in thrombopoietin treatment; ***: up in IFNγ treatment; ****: up in IL-6 treatment
[1] = tested on: TF-1, Erythroleukemia; experiment: GeneCalling confirmation of gene expression changes in TF-1 cells; details: confirmed by GeneCalling
[2] = tested on: MG-63, Osteosarcoma; experiment: GeneCalling confirmation of gene expression changes in MG-63 cells; details: confirmed by GeneCalling; for Collagen gene expression change: up with OPG, down with thrombopoietin
[3] = tested on: U-87MG, Astrocytoma; experiment: GeneCalling confirmation of gene expression changes in U-87MG cells; details: confirmed by GeneCalling

## IL-6: known protein used to treat the indicated cell lines in GeneCalling confirmation
[1]
  ICAM-1 gene expression change: ICAM-1****

## thrombopoietin: known protein used to treat the indicated cell lines in GeneCalling confirmation
[2]
  Collagen gene expression change: Collagen**

B1: IFNγ: known protein used to treat the indicated cell lines in GeneCalling confirmation (protein, UniProt P01579 24-161, looked up)
Interferon gamma: QDPYVKEAENLKKYFNAGHSDVADNGTLFLGILKNWKEESDRKIMQSQIVSFYFKLFKNFKDDQSIQKSVETIKEDMNVKFFNSNKKKRDDFEKLTNYSVTDLNVQRKAIHELIQVMAELSPAAKTGKRKRSQMLFRG
[1]
  IRF-1 gene expression change: IRF-1***
[3]
  IRF-1 gene expression change: IRF-1***

B2: IL-1α: known protein used to treat the indicated cell lines in GeneCalling confirmation (protein, UniProt P01583 113-271, looked up)
Interleukin-1 alpha: SAPFSFLSNVKYNFMRIIKYEFILNDALNQSIIRANDQYLTAAALHNLDEAVKFDMGAYKSSKDDAKITVILRISKTQLYVTAQDEDQPVLLKEMPEIPKTITGSETNLLFFWETHGTKNYFTSVAHPNLFIATKQDYWVCLAGGPPSITDFQILENQA
[2]
  Factor B gene expression change: Factor B*
  IL-8 gene expression change: IL-8*
  IRF-1 gene expression change: IRF-1*
  LOX gene expression change: LOX*
  MxA gene expression change: MxA*
  TAP-1 gene expression change: TAP-1*
[3]
  IL-8 gene expression change: IL-8*
  MCP-1 gene expression change: MCP-1*
  Tenascin-c gene expression change: Tenascin-c*

B3: OPG: known protein used to treat the indicated cell lines in GeneCalling confirmation (protein, UniProt O00300 22-401, looked up)
Tumor necrosis factor …: ETFPPKYLHYDEETSHQLLCDKCPPGTYLKQHCTAKWKTVCAPCPDHYYTDSWHTSDECLYCSPVCKELQYVKQECNRTHNRVCECKEGRYLEIEFCLKHRSCPPGFGVVQAGTPERNTVCKRCPDGFFSNETSSKAPCRKHTNCSVFGLLLTQKGNATHDNICSGNSESTQKCGIDVTLCEEAFFRFAVPTKFTPNWLSVLVDNLPGTKVNAESVERIKRQHSSQEQTFQLLKLWKHQNKDQDIVKKIIQDIDLCENSVQRHIGHANLTFEQLRSLMESLPGKKVGAEDIEKTIKACKPSDQILKLLSLWRIKNGDQDTLKGLMHALKHSKTYHFPKTVTQSLKKTIRFLHSFTMYKLYQKLFLEMIGNQVQSVKISCL
[2]
  Collagen gene expression change: Collagen**
